Experimental findings from PMC7496822 (Arthritis & Rheumatology (Hoboken, N.j.), 2020) are described below.

B1: recombinant IgM of MALT lymphoma salivary gland sample M5 (antibody, V domains shown)
VH: EVQLVESGGGLVQPGGSLRLSCAASGFTFSSYWMSWVRQAPGKGLEWVANIKEDGGGKYYVDSVKGRFTISRDNAKNSLYLQMNSLRVEDTAVYYCARGDFWSGDYIDAFDIWGQGTLVTVSS
VL: EIVMTQSPATLSVSPGERATLSCRASQSVSSNLAWYQQKPGQPPRLLIYGASTRATGIPARFSGGGSGTEFTLTISSLQSEDFALYYCQHYNNWPPWTFGQGTKVEIK
B2: recombinant IgM of MALT lymphoma salivary gland sample M11 (antibody, V domains shown)
VH: QVQLVQSGAEVKKPGSSVKVSCRASGGTFSRYAISWVRQAPGQGLEWMGGIIPLFNTPNYAQKFQGRVTIIADESTSTAYMELSSLRSDDTAVYYCAREGIAAAVNPFDYWGQGTLVTVSS
VL: not shown
B3: recombinant IgM of MALT lymphoma salivary gland sample M22 (antibody, V domains shown)
VH: QVQLVQSGAEVKKSGSSVKVSCKASGGTFNNYAINWVRQAPGQGLEWMGGIIPIFGTPNYAQKFQGRVAITADKSTGTAYMELSSLRSEDTAVYYCARGSNDYGDNVPVQPYHYWGQGTLVTVSS
VL: EIVLTQSPGTLSLSPGERATLSCRASQSISSTYLAWYQQKPGQAPRLLIYGASSRATGIPDRFSGSGSGTDFTLTISRLEPEDFAMYYCQQFGSSPQTFGQGTKLEIK

Sequence of SSA/Ro60 (P10155 whole entry): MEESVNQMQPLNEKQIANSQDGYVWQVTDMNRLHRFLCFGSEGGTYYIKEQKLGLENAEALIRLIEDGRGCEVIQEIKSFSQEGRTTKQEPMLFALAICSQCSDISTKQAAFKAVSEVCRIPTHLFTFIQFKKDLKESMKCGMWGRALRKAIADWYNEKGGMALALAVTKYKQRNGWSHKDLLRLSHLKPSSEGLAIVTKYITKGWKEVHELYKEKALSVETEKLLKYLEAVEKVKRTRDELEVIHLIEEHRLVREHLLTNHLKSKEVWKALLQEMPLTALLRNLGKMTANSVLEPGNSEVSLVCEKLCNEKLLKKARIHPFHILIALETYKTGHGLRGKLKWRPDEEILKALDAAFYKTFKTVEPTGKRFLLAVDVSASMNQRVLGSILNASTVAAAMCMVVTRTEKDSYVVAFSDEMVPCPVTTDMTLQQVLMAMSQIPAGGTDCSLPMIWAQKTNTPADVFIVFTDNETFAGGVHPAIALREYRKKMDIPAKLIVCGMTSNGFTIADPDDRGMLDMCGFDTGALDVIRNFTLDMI

One experiment addresses actin from bovine muscle (Bos taurus, UniProt P68138). In words: ELISA. (ELISA stands for enzyme-linked immunosorbent assay.)
Consider B1, for which the binding result was “no binding (tested: up to 1 μg/ml IgM)”.
For the molecule B2, the binding result is “no binding (tested: up to 1 μg/ml IgM)”.
Take B3: the binding result is “no binding (tested: up to 1 μg/ml IgM)”.

A further experiment has as its target SSA/Ro60 (Homo sapiens (assumed), UniProt P10155). In words: ELISA.
On to B1, for which the binding result is given as “no binding (tested: up to 1 μg/ml IgM)”.
For the molecule B2, the binding result is “no binding (tested: up to 1 μg/ml IgM)”.
Consider B3, for which the binding result is given as “no binding (tested: up to 1 μg/ml IgM)”.

The target in a further experiment is insulin from bovine pancreas (Bos taurus, UniProt P01317). In words: ELISA.
Sequence of insulin from bovine pancreas (P01317 whole entry, looked up): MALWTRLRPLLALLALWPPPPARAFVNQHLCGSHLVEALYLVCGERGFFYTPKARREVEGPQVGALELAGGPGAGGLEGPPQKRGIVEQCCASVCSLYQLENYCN
In the case of B1, the binding result is “no binding (tested: up to 1 μg/ml IgM)”.
In the case of B2, the binding result is on record as “no binding (tested: up to 1 μg/ml IgM)”.
In the case of B3, the binding result is “no binding (tested: up to 1 μg/ml IgM)”.

For the next experiment, the target named is SSA/Ro52 (Homo sapiens (assumed), UniProt P19474). In words: ELISA.
Sequence of SSA/Ro52 (P19474 whole entry): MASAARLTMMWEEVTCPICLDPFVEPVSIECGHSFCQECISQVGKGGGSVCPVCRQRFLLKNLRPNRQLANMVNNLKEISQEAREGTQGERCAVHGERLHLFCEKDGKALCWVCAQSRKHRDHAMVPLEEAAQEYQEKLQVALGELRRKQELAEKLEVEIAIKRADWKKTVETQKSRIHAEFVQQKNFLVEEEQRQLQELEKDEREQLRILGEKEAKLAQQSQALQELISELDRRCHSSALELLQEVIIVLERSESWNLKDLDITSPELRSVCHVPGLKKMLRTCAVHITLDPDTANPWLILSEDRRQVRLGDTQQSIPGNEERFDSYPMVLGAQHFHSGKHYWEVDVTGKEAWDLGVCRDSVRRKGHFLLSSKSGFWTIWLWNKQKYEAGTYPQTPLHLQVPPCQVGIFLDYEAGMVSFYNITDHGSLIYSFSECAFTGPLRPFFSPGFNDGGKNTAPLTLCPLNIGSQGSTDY
With B1, the binding result is “no binding (tested: up to 1 μg/ml IgM)”.
Regarding B2, the binding result is recorded as “no binding (tested: up to 1 μg/ml IgM)”.
Consider B3, for which the binding result is given as “no binding (tested: up to 1 μg/ml IgM)”.
